Source: paper PMC3978581

Key:
[1] = biological target: Human prolactin receptor, endogenous on human breast cancer cell lines (human (endogenous in T47D, SKBR3, MDA-MB-468, MCF-7, BT474)) (UniProt P16471)
[2] = biological target: Human prolactin receptor, endogenous on human breast cancer cell lines (human (endogenous in T47D, SKBR3, MDA-MB-468, MCF-7, BT474)) (UniProt P16471); remark: listed apart in the source

Chain of UniProt P16471 (P16471 25-622, stated change not applied): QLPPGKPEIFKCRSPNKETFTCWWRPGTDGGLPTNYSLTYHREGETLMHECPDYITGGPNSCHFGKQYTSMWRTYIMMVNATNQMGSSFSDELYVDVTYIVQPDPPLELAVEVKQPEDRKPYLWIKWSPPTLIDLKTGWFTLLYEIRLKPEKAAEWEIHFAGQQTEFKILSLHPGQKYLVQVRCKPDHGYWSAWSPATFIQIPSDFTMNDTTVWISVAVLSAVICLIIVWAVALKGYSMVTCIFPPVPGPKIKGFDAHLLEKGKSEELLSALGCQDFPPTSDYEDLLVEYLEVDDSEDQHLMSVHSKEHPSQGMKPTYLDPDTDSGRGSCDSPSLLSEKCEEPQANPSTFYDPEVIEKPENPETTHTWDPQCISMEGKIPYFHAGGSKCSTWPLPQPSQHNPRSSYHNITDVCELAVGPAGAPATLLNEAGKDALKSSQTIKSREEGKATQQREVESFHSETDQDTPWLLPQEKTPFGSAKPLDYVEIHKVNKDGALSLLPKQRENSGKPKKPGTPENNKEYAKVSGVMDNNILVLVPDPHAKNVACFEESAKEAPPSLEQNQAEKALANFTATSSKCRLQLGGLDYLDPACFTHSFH

An EC50 of prolactin (1 to 100 nM, 15 min) for Stat5 tyrosine phosphorylation in SKBR3 cells at pHe 6.8 [1] of 119 nM, an EC50 of prolactin (1 to 100 nM, 15 min) for Stat5 tyrosine phosphorylation in SKBR3 cells at pHe 7.4 [1] of 3.3 nM and an EC50 of prolactin (1 to 100 nM, 15 min) for Stat5 tyrosine phosphorylation in T47D cells at pHe 6.8 [1] of 37.8 nM were found for “Recombinant human prolactin (from UniProt P01236 29-227) (ligand)” in this work. The EC50 of prolactin (1 to 100 nM, 15 min) for Stat5 tyrosine phosphorylation in T47D cells at pHe 7.4 [1] was 3.7 nM and the loss of prolactin-stimulated Stat5 and Erk phosphorylation in T47D and SKBR3 cells over pHe 7.4 to 6.6; percent diminished at pHe 6.8 against pHe 7.4 [2] was > 80%.
